The source of these data is patent US20240400715A1 (VIBRANT PHARMA, published 2024).

Positions count from the first letter of the chain named. Where “and” joins values, the source holds several entries; their conditions need not be identical. Identical values can stand only once.

Sequences and labels used below:
B1: CEA-Fab-Knob-+Hole (203) (bispecific antibody, human IgG4 S228P, kappa, F234A L235A)
heavy: EVKLLESGGGLVQPKGSLKLSCAASGFTFNTYAMNWVRQAPGKGLEWVARIRSKYNNYATYYADSVKDRFTISRDDSQSILYLQMNNLKTEDTAMYYCVRHGNFGNSYVSWFAYWGQGTLVTVSSASTKGPSVFPLAPCSRSTSESTAALGCLVKDYFPEPVTVSWNSGALTSGVHTFPAVLQSSGLYSLSSVVTVPSSSLGTKTYTCNVDHKPSNTKVDKRVESKYGPPCPPCPAPEAAGGPSVFLFPPKPKDTLMISRTPEVTCVVVDVSQEDPEVQFNWYVDGVEVHNAKTKPREEQFNSTYRVVSVLTVLHQDWLNGKEYKCKVSNKGLPSSIEKTISKAKGQPREPQVYTLPPCQEEMTKNQVSLWCLVKGFYPSDIAVEWESNGQPENNYKTTPPVLDSDGSFFLYSRLTVDKSRWQEGNVFSCSVMHEALHNHYTQKSLSLSL
chain: ESKYGPPCPPCPAPEAAGGPSVFLFPPKPKDTLMISRTPEVTCVVVDVSQEDPEVQFNWYVDGVEVHNAKTKPREEQFNSTYRVVSVLTVLHQDWLNGKEYKCKVSNKGLPSSIEKTISKAKGQPREPQVCTLPPSQEEMTKNQVSLSCAVKGFYPSDIAVEWESNGQPENNYKTTPPVLDSDGSFFLVSRLTVDKSRWQEGNVFSCSVMHEALHNRFTQKSLSLSL
light: EVQLVESGGGFVQAGESLTLSCTSSTLTFTPYRMAWYRQAPGKQRDLVADISSGDGRTTNYADFAKGRFTISRDNIKNTVFLRMTNLKPEDTAVYYCNTFVSFVGIARSWGQGTQVTVSSGGGGSGGGGSQAVVTQESALTTSPGETVTLTCRSSTGAVTTSNYANWVQEKPDHLFTGLIGGTNKRAPGVPARFSGSLIGDKAALTITGAQTEDEAIYFCALWYSNLWVFGGGTKVEIKRTVAAPSVFIFPPSDEQLKSGTASVVCLLNNFYPREAKVQWKVDNALQSGNSQESVTEQDSKDSTYSLSSTLTLSKADYEKHKVYACEVTHQGLSSPVTKSFNRGEC
notes: VHH linked to the VL of the Fab; human IgG4 knob-into-hole Fc
B2: Knob-CEA+Fab-Hole (105) (bispecific antibody, human IgG4 S228P, kappa, F234A L235A)
chain: ESKYGPPCPPCPAPEAAGGPSVFLFPPKPKDTLMISRTPEVTCVVVDVSQEDPEVQFNWYVDGVEVHNAKTKPREEQFNSTYRVVSVLTVLHQDWLNGKEYKCKVSNKGLPSSIEKTISKAKGQPREPQVYTLPPCQEEMTKNQVSLWCLVKGFYPSDIAVEWESNGQPENNYKTTPPVLDSDGSFFLYSRLTVDKSRWQEGNVFSCSVMHEALHNHYTQKSLSLSLGGGGSGGGGSEVQLVESGGGFVQAGESLTLSCTSSTLTFTPYRMAWYRQAPGKQRDLVADISSGDGRTTNYADFAKGRFTISRDNIKNTVFLRMTNLKPEDTAVYYCNTFVSFVGIARSWGQGTQVTVSS
heavy: B1 heavy with Y354C, C359S, W371S, L373A, Y412V, H440R, Y441F
light: QAVVTQESALTTSPGETVTLTCRSSTGAVTTSNYANWVQEKPDHLFTGLIGGTNKRAPGVPARFSGSLIGDKAALTITGAQTEDEAIYFCALWYSNLWVFGGGTKVEIKRTVAAPSVFIFPPSDEQLKSGTASVVCLLNNFYPREAKVQWKVDNALQSGNSQESVTEQDSKDSTYSLSSTLTLSKADYEKHKVYACEVTHQGLSSPVTKSFNRGEC
notes: Anti-CD3 TA1 Fab + anti-CEA VHH C17 on human IgG4 knob-into-hole Fc
B3: Knob+CEA-Fab-Hole (204) (bispecific antibody, human IgG4 S228P, kappa, F234A L235A)
chain: B1 chain with C131Y, S136C, S148W, A150L, V189Y, R217H, F218Y
heavy: B1 heavy with Y354C, C359S, W371S, L373A, Y412V, H440R, Y441F
light: B1 light
notes: as for B1
B4: CEA-Fab-Knob-+Hole (205) (bispecific antibody, human IgG4 S228P, kappa, F234A L235A)
heavy: EVQLVESGGGFVQAGESLTLSCTSSTLTFTPYRMAWYRQAPGKQRDLVADISSGDGRTTNYADFAKGRFTISRDNIKNTVFLRMTNLKPEDTAVYYCNTFVSFVGIARSWGQGTQVTVSSGGGGSGGGGSEVKLLESGGGLVQPKGSLKLSCAASGFTFNTYAMNWVRQAPGKGLEWVARIRSKYNNYATYYADSVKDRFTISRDDSQSILYLQMNNLKTEDTAMYYCVRHGNFGNSYVSWFAYWGQGTLVTVSSASTKGPSVFPLAPCSRSTSESTAALGCLVKDYFPEPVTVSWNSGALTSGVHTFPAVLQSSGLYSLSSVVTVPSSSLGTKTYTCNVDHKPSNTKVDKRVESKYGPPCPPCPAPEAAGGPSVFLFPPKPKDTLMISRTPEVTCVVVDVSQEDPEVQFNWYVDGVEVHNAKTKPREEQFNSTYRVVSVLTVLHQDWLNGKEYKCKVSNKGLPSSIEKTISKAKGQPREPQVYTLPPCQEEMTKNQVSLWCLVKGFYPSDIAVEWESNGQPENNYKTTPPVLDSDGSFFLYSRLTVDKSRWQEGNVFSCSVMHEALHNHYTQKSLSLSL
chain: B1 chain
light: B2 light
notes: VHH linked to the VH of the Fab; human IgG4 knob-into-hole Fc
B5: CEA-Knob+Fab-Hole (104) (bispecific antibody, human IgG4 S228P, kappa, F234A L235A)
chain: EVQLVESGGGFVQAGESLTLSCTSSTLTFTPYRMAWYRQAPGKQRDLVADISSGDGRTTNYADFAKGRFTISRDNIKNTVFLRMTNLKPEDTAVYYCNTFVSFVGIARSWGQGTQVTVSSESKYGPPCPPCPAPEAAGGPSVFLFPPKPKDTLMISRTPEVTCVVVDVSQEDPEVQFNWYVDGVEVHNAKTKPREEQFNSTYRVVSVLTVLHQDWLNGKEYKCKVSNKGLPSSIEKTISKAKGQPREPQVYTLPPCQEEMTKNQVSLWCLVKGFYPSDIAVEWESNGQPENNYKTTPPVLDSDGSFFLYSRLTVDKSRWQEGNVFSCSVMHEALHNHYTQKSLSLSL
heavy: B1 heavy with Y354C, C359S, W371S, L373A, Y412V, H440R, Y441F
light: B2 light
notes: as for B2
B6: 305 (TA6), configuration of FIG. 1W (bispecific antibody, IgG4)
heavy: EVQLVQSGAEVKKPGASVKVSCKASGYTFTNYYIHWVRQAPGQGLEWIGWIYPGDGNTKYNEKFKGRATLTADTSTSTAYLELSSLRSEDTAVYYCARDSYSNYYFDYWGQGTLVTVSSASTKGPSVFPLAPCSRSTSESTAALGCLVKDYFPEPVTVSWNSGALTSGVHTFPAVLQSSGLYSLSSVVTVPSSSLGTKTYTCNVDHKPSNTKVDKRVESKYGPPCPPCPAPEAAGGPSVFLFPPKPKDTLMISRTPEVTCVVVDVSQEDPEVQFNWYVDGVEVHNAKTKPREEQFNSTYRVVSVLTVLHQDWLNGKEYKCKVSNKGLPSSIEKTISKAKGQPREPQVYTLPPCQEEMTKNQVSLWCLVKGFYPSDIAVEWESNGQPENNYKTTPPVLDSDGSFFLYSRLTVDKSRWQEGNVFSCSVMHEALHNHYTQKSLSLSL
chain: B5 chain with Y251C, C256S, W268S, L270A, Y309V, H337R, Y338F
light: DIVMTQSPDSLAVSLGERATINCKSSQSLLNSRTRKNYLAWYQQKPGQPPKLLIYWASTRESGVPDRFSGSGSGTDFTLTISSLQAEDVAVYYCTQSFILRTFGQGTKVEIK
notes: chains put together from VH/VL, CH1, knob-Fc; IgG4, kappa; also called CEA-CD3 bispecific antibody 305; not shown: kappa light chain constant domain (CL)

For one assay, the target named is T1, human CD3ε/δ (ACRO systems, CDD-H52W1) (human, UniProt P07766 23-126; P04234 22-105).
T1 construct: Bought protein; also called human CD3ϵ/CD3δ; human CD3 epsilon/delta antigen
Description: BLI, antibody captured, antigen in solution.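 Further: bispecific antibodies captured on AHIC biosensors to a 1.5 nm loading signal, in PBST with 0.02% detergent.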
Description: The bispecific antibodies were diluted to 5 ag/ml, and 1.5 nm protein was coupled to the surface of the AHIC sensor chip through 0.02% PBST.
Regarding B1, the Kd amounted to 2.51 nM, the koff was found to be 0.000621 s⁻¹ and the kon was determined as 248000 M⁻¹ s⁻¹.

B2 had a Kd of 0.696 nM, a koff of 0.000256 s⁻¹ and a kon of 367000 M⁻¹ s⁻¹.

The molecule B3 registered a Kd of 2.91 nM, a koff of 0.000571 s⁻¹ and an on-rate (kon) of 197000 M⁻¹ s⁻¹.

Molecule B4 displayed a Kd of 2.38 nM, a koff of 0.000666 s⁻¹ and a kon of 279000 M⁻¹ s⁻¹.

The molecule B5 had a Kd of 0.839 nM, a koff of 0.0003 s⁻¹ and a kon of 357000 M⁻¹ s⁻¹.

B6 registered a Kd of 2.85 nM, a koff of 0.00087 s⁻¹ and a kon of 324000 M⁻¹ s⁻¹.

The target in another assay is T2, human CD3 on Jurkat cells (human, UniProt P07766 23-207; P04234 22-171; P09693 23-182).
T2 construct: whole, on cells; CD3 complex as on Jurkat (Clone E6-1) cells; also called CD3 expressing cells (Jurkat)
Description: FACS, Jurkat cells.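 Further: flow cytometric binding of bispecific antibodies to Jurkat T cells, threefold serial dilutions incubated half an hour in the cold, EC50 taken from the fitted binding curve.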
B1: the EC50 was 0.29 µg/mL and 2.23 nM.

Turning to B2, the concentration for a half-maximal effect (EC50) is 0.85 µg/mL and 6.54 nM.

Turning to B3, the EC50 is 1.36 µg/mL and 10.4 nM.

B4: the EC50 was 0.195 µg/mL and 1.5 nM.

Regarding B5, the EC50 was 3.35 µg/mL and 25.8 nM.

Turning to B6, the EC50 was 0.267 µg/mL and 2.05 nM.
